Test system: HPV16
Assay: HPV16 PsV infection of HaCaT cells, luciferase assay
Format: cell-based, human papillomavirus
Experimental: FIG. 2. […] (A, B) Immunoblot for syndecan-1 (polyclonal syndecan-1 Ab) after 24 hours at 37° C. in CM (A) or post starvation in SFM and after six hours at 37° C. in Tyrode's Buffer (B); immunoblot for HPV16 L1 released into CM post virus binding for indicated times (C) or 24 hours (E). […] Cells were untreated (U) or pre-treated with BM or MM for one hour, then exposed to HPV16 PsV in the presence of inhibitors in CM. Infection was assayed by quantifying luciferase levels at 24 hours p.i. (F). Data are represented as mean±SEM of three experiments. (G-H) IC50 of HPV16 infectivity inhibition by MMIP inhibitors batimastat and mariniastat. […] HPV16 infection was measured with luciferase assay. […]
FIG. 7. […] Cells were exposed to HPV16 PsV at 100 vge/cell for one hour at 4° C., then washed extensively and shifted to 37° C. in the presence of the indicated inhibitor in CM for 24 hours at which time they were analyzed for luciferase expression. […] (B-C) EGFR knockdown was accomplished using siRNA to EGFR and the percent of EGFR protein remaining in EGFR-siRNA transfected HaCaT cells was determined by immunoblot and compared by densitometry to EGFR levels in cells transfected with a negative control siRNA at 48 hours post transfection. Four separate transfections were analyzed (B) and HPV16 PsV infection levels were measured at 24 hours post infection (48 hours post transfection) in each (C). […]

B1: TIMP3: blocks MMP activity (protein, UniProt P35625 24-211, looked up)
Metalloproteinase inhibitor 3: CTCSPSHPQDAFCNSDIVIRAKVVGKKLVKEGPFGTLVYTIKQMKMYRGFTKMPHVQYIHTEASESLCGLKLEVNKYQYLLTGRVYDGKMYTGLCNFVERWDQLTLSQRKGLNYRYHLGCNCKIKSCYYLPCFVTSKNECLWTDMLSNFGYPGYQSKHYACIRQKGGYCSWYRGWAPPDKSIINATDP
- HPV16 infection of HaCaT cells (in words) (CM, luciferase 24 hours p.i.): can prevent HPV16 infection

B2: KGF: keratinocyte growth factor, GFR ligand (protein, UniProt P21781 32-194, looked up)
Fibroblast growth factor 7: CNDMTPEQMATNVNCSSPERHTRSYDYMEGGDIRVRRLFCRTQWYLRIDKRGKVKGTQEMKNNYNIMEIRTVAVGIVAIKGVESEFYLAMNKEGKLYAKKECNEDCNFKELILENHYNTYASAKWTHNGGEMFVALNQKGIPVRGKKTKKEQKTAHFLPMAIT
- restoration of HPV16 infectivity in SFM by added factor (serum-starved HaCaT, HPV16 bound in SFM, 24 hours in SFM plus factor, compared to CM): partially restore infection levels
